Measured values: the supplement of paper PMC9170038

Test system: K4 kissing-loop RNA reporter
Assay: apparent KD of K4 kissing-loop reporter; higher = weaker reporter binding
Settings: Eterna round: R107
Description: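 RNA-MaP round R107: designed RNA switches with theophylline, tryptophan, arginine or FMN aptamers are transcribed on-chip within common flanks. They are titrated with a labelled K4 kissing-loop RNA reporter in RNA-MaP buffer (100 mM Tris pH 7.5, 80 mM KCl, 4 mM MgCl2), without ligand or with the indicated ligand. Median apparent KD per design.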

[1] = input ligand: theophylline 20 uM
[2] = input ligand: tryptophan 2.4 mM
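Further: bound reporter read as fluorescence of individual clusters on recovered sequencing chips by microscopy, with normalized cluster intensities fitted with a binding model.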

Sequence	apparent KD of K4 kissing-loop reporter (input ligand: FMN 200 uM)	apparent KD of K4 kissing-loop reporter (input ligand: arginine 13.2 mM)	apparent KD of K4 kissing-loop reporter (input ligand: none)	apparent KD of K4 kissing-loop reporter [1]	apparent KD of K4 kissing-loop reporter [2]
GCAUCCUAUGCAGGAUAUUAGCAUUUGAGUGAUGUUCAGACUAGCGAAAGCUAGUCAAUUGCUGGUUAAGAAGGGCAUAGGAUGC	891 nM	750 nM	971 nM	902 nM	689 nM
GCCGUACGCAUGGAUACCAGCAAGCAUAGCAGGAAACUGCUAUGCACCAGUGAUGUUGGAUGCCCUUGGCAGCCAUGCGUACGGC	1250 nM	754 nM	926 nM	439 nM	1110 nM
GCCGUACGCAUGGAUACCAGCAUGCAUAUUAGCUAGUGAUGUUAGCGCUAUGCGAUGCUAUGCCCUUGGCAGCCAUGCGUACGGC	124 nM	108 nM	127 nM	247 nM	132 nM
GCCGUAGAUUGAAGGAGCGCCAUCUUACCAAGAGUGAUGUUCUUUGGUACCAUGUACAGCUGGCAGGUAGGUCGCAAUCUACGGC	192 nM	151 nM	173 nM	181 nM	169 nM
GCCGUAGAUUGAAGGAGCGCCGCGCAUGUCCCGCUUAGUGUAGUGAUGUUACAGUUUCAGCGGCAGGUAGGUCGCAAUCUACGGC	83.4 nM	83.3 nM	81.3 nM	77.2 nM	69.5 nM
GCCUACGAUGCAGGAUAUAGCUCGCGAGUGAUGUUCGCAGCUGUAUGGUAGUAAGCUUCCACGUGUCUAGAAGGGCAUCGUAGGC [#01 K4 FMN B Exclusion]	131 nM	80.2 nM	93.6 nM	83.3 nM	88.7 nM
GCGCGGCACAGUGAUGUUGUGCCUCGGAGACGAGGACCGGUACGGCCGCCACUCGUCCGCGCAGCUGAGGCAAAAGCCUCGGCAA [Omei KL Tryp A SS B v4]	382 nM	393 nM	473 nM	447 nM	128 nM
GCGCGUCAUGUCAGCGGUGACUACGUCGAUACCAGCAGGGAAACCUGCCCUUGGCAGCGACGCGCUGGAGUGAUGUUCCGACAGA [#2 Exclusion - Theophylline A Attempt #5 (HarryS)]	218 nM	247 nM	192 nM	309 nM	176 nM
GCGCUUAAAUAAGGAUAUUACAGACUCAUCUACGAGUGAUGUUCGGUGCGCUGUGCACAGAGCCUGUAAGAAGGUAUAGCAUUGC [theeternabot_sameState_KL_FMN_B_41]	1010 nM	716 nM	1180 nM	811 nM	861 nM
GCUAUGGUAGGAAGGAGCGCUUACUCAUUAAUAAGAGUGAUGUUCGAUAAUGAGUAUUUAUAGCAGGUAGGUCGCCUACUAUAGC [Arginine B K4 3]	280 nM	221 nM	270 nM	247 nM	237 nM
GCUAUGGUAGGAAGGAGCGCUUAUUUAUUUUUAAGAGUGAUGUUCGUUAGUAGAUAUUUAAAGCAGGUAGGUCGCCUACUAUAGC [Arginine B K4 14]	85.8 nM	124 nM	84 nM	120 nM	52 nM
GCUAUGGUAGGAAGGAGCGCUUGCUCGGUCAUAAGAGUGAUGUUCGAGACCGAGCAUUUAUAGCAGGUAGGUCGCCUACUAUAGC [Arginine B K4 7]	310 nM	194 nM	200 nM	256 nM	250 nM
GCUCAGGAGUGAUGUUCCAAGUGGUGUUAACGAGGACCGGUACGGCCGCCACUCGAUACGGCCGGACCGUAGGAUAAACUAGAGC [Same State - Tryptophan A (Freestyle 11)]	233 nM	175 nM	196 nM	280 nM	206 nM
GCUGCCAUGGCAGGAUAUAUAAAUGCUGAGUGAUGUUCUGCAUCAUAUGUCCCUGACCGCGGCGGUGUAGAAGGGCCAUGGCAGC	135 nM	93 nM	107 nM	97.1 nM	103 nM
GGAAAUCUUGCCGAUACCAGAUCGCGCGGCCAUUGCUAGUGAUGUUGGCAAUAAGUACUCAUCCCUUGGCAGCGGUAAGGCAGUG [theeternabot_sameState_KL_Theo_B_23]	390 nM	293 nM	359 nM	195 nM	280 nM
GGAAGGAAGGAAACCAACCAACCAACCGAUACCAGCGGAAGAGAACGCCCUUGGCAGCGGAGAAAGCCAGUGAUGUUGGAAAGAA	324 nM	224 nM	402 nM	300 nM	318 nM

Sequence	apparent KD of K4 kissing-loop reporter (input ligand: FMN 200 uM)	apparent KD of K4 kissing-loop reporter (input ligand: arginine 13.2 mM)	apparent KD of K4 kissing-loop reporter (input ligand: none)	apparent KD of K4 kissing-loop reporter [1]	apparent KD of K4 kissing-loop reporter [2]
GGAAUGCUGUAAGGAUAUCUCGGACGGUUACUCCGUUUCUCGCGUGUAAGAAUCUGAGUGAUGUUUAGAGAAGGUACGCUGGUUA [theeternabot_exclusion_KL_FMN_B_21]	178 nM	233 nM	240 nM	225 nM	149 nM
GGACACUAGGAAACUAGUGUCUCAACUGAAGGAGCGUGAAUAGUCACAGGUAGGUCGCAGUUUGUUAGUGAUGUUGACAUGAGUU [#16 K4 Arginine A Same State]	302 nM	394 nM	514 nM	439 nM	277 nM
GGAGGGAUCUCGGCCGCCACUCGUGGGAAAUGGGCCUCAGGGAUAUAGUGAUGUUAUGUAAAGAAGAGGACCGGGAGAAGGAAGG [ExTryptoB.Dg]	319 nM	269 nM	330 nM	366 nM	240 nM
GGAGUUACCUGGGAUACCAGUCGGAGGCCCAGAGCUCGGAGUGAUGUUCUGGGAUGUUUCGGCCCUUGGCAGCUCUGGGUCUCCC [#2 Exclusion - Theophylline B Attempt #7 (HarryS)]	1690 nM	563 nM	1040 nM	895 nM	718 nM
GGAUAGGACAGAGGAUAUGGAGAGUCUACAAAGUAGGCUCAUAAUCCUUGAAUGGAAGUGAUGUUUCCAGAAGGCUGUCCUAUCG [FmnBX 17 - #SwitchBubble #StaticStem #Palindromic]	664 nM	99.9 nM	103 nM	101 nM	119 nM
GGAUAGGACAGAGGAUAUGGUAGUGAUGUUACCAAACUGGUUACUCUUGUCAGAAAACUGGCAUCUCCAGAAGGCUGUCCUAUCG [KL-XFMN-B10]	594 nM	109 nM	123 nM	135 nM	127 nM
GGAUAGGACAGAGGAUAUGGUAGUGAUGUUACCAAACUGGUUAUCAAUGUUAGAAAAUUGACAAAACCAGAAGGCUGUCCUAUCG [KL-XFMN-B15]	129 nM	65.6 nM	67.8 nM	59.2 nM	66.6 nM
GGAUAGGACUGAGGAUAUGGGCUAGGCAAGAAUAACUUGUCUAGCAAAUCCAUGAGGAGUGAUGUUCCAGAAGGCAGUCCUAUCG [FmnBX 1 U10+A76]	732 nM	135 nM	170 nM	167 nM	113 nM
GGAUCCACCAGUGAUGUUGGAAAAUACUCCAAGGAUAUGACGAAAGUCAGAAGGUGGUAGACUGGACAAAGUCCAGUCGGAUCCA [FmnA 27 #SwitchBubble #K4Early]	531 nM	205 nM	527 nM	537 nM	504 nM
GGAUCCACCAGUGAUGUUGGAGAAAACUCGAAGGAUAUGACGAAAGUCAGAAGGUCGUAGACUGGACAAAGUCCGGUCGGAUCCA [FmnA 19 G30+C56]	500 nM	541 nM	539 nM	490 nM	461 nM
GGAUCCACCAGUGAUGUUGGAGAAAACUCUAAGGAUAUGACGAAAGUCAGAAGGUGGUAGACUGGACAAAGUCCGGUAGGAUCCA [FmnA10 U30+A78]	682 nM	201 nM	617 nM	216 nM	250 nM
GGAUGCAUUUUGGAUACCAGUCUAGUGAUGUUAGACUGAUAAUAACGGGCAGCGUUGGCAGACCCUUGGCAGCCAAAAUACUUAA [theeternabot_exclusion_KL_Theo_B_33]	62.2 nM	64.6 nM	54.8 nM	63.9 nM	58.9 nM
GGCACUACAGCGGCCGCCACUGUUUAGUCCAUCGCUUGCGAGUGAUGUUCGUAGGUACUGCAGCUCAGGACCGGGCUGUCCUUAC [theeternabot_sameState_KL_Trp_B_34]	475 nM	393 nM	471 nM	310 nM	388 nM
GGCACUUUUGGUAGAAAACAUCUACCUCUAUAGGAUAUGCCGAAAGGCAGAAGGAUAGACCUACAGAGUGAUGUUCUGCGUGCCU	874 nM	143 nM	447 nM	356 nM	283 nM
GGCAUGGUGACGCGGCGGCCAUGCACUUGGGAGGAUAUGUUUCGUGACAGAAGGCCCAGUGAUGUUGGGUCUGUUCAAAAGGACU [Riteveat]	491 nM	170 nM	192 nM	174 nM	141 nM
GGCAUGGUGACGCGGCUGCCAUACGCUUGGGAGGAUAUGUUUCGUGACAGAAGGCCCAGUGAUGUUGGGUCUGUUCAAAAGGACU [Arisus]	659 nM	160 nM	170 nM	169 nM	150 nM
